According to publication PMC4355161:
Read-outs that look alike come from different tables or passages of the source.

How the values were obtained:
[1] = target: 30/30 nucleosomes labeled with Cy3 on H4 A15C (UniProt P62799); experiment: other fluorescence titration
[2] = target: 0/20 Cy3 DNA(−25) nucleosomes; experiment: FRET or BRET
[3] = target: 0/20 H2A T11C-Cy3 nucleosomes (UniProt P06897); experiment: FRET or BRET
[4] = target: 0/20 Cy3 DNA(+20) nucleosomes; experiment: FRET or BRET
[5] = target: 0/20 Cy3 DNA(−25) nucleosomes; experiment: FRET or BRET; remark: listed apart in the source
[6] = target: 0/20 H2A T11C-Cy3 nucleosomes (UniProt P06897); experiment: FRET or BRET; remark: listed apart in the source
[7] = target: 0/20 Cy3 DNA(+20) nucleosomes; experiment: FRET or BRET; remark: listed apart in the source

| fold preference over core nucleosomes [1] | fold tighter binding than to core nucleosomes [1] | FRET ratio [2] | FRET ratio [3] | FRET ratio [4] | FRET ratio [5] | FRET ratio [6] | FRET ratio [7] | Substance |
| --- | --- | --- | --- | --- | --- | --- | --- | --- |
| 4.9 fold | 2.1 fold | – | – | – | – | – | – | wild type SNF2h (from UniProt O60264 1-1052) (enzyme) |
| – | – | 0.4 | 0.39 | 0.51 | 0.49 | 0.56 | 0.34 | SNF2h A930C-Cy5 (from UniProt O60264 1-729; O60264 730-1052) (enzyme) |
